Assay results taken from IntAct's records for PubMed 24366543.

B1: Nuclear factor erythroid 2-related factor 2 (Mus musculus), Q60795 (parent)
chain: MMDLELPPPGLQSQQDMDLIDILWRQDIDLGVSREVFDFSQRQKDYELEKQKKLEKERQEQLQKEQEKAFFAQFQLDEETGEFLPIQPAQHIQTDTSGSASYSQVAHIPKQDALYFEDCMQLLAETFPFVDDHESLALDIPSHAESSVFTAPHQAQSLNSSLEAAMTDLSSIEQDMEQVWQELFSIPELQCLNTENKQLADTTAVPSPEATLTEMDSNYHFYSSISSLEKEVGNCGPHFLHGFEDSFSSILSTDDASQLTSLDSNPTLNTDFGDEFYSAFIAEPSDGGSMPSSAAISQSLSELLDGTIEGCDLSLCKAFNPKHAEGTMEFNDSDSGISLNTSPSRASPEHSVESSIYGDPPPGFSDSEMEELDSAPGSVKQNGPKAQPAHSPGDTVQPLSPAQGHSAPMRESQCENTTKKEVPVSPGHQKAPFTKDKHSSRLEAHLTRDELRAKALHIPFPVEKIINLPVDDFNEMMSKEQFNEAQLALIRDIRRRGKNKVAAQNCRKRKLENIVELEQDLGHLKDEREKLLREKGENDRNLHLLKRRLSTLYLEVFSMLRDEDGKPYSPSEYSLQQTRDGNVFLVPKSKKPDTKKN

Variants of: B1
Conditions: with keap1_mouse Keap1, Q9Z2X8
Sequence of keap1_mouse Keap1, Q9Z2X8 (Q9Z2X8 whole entry): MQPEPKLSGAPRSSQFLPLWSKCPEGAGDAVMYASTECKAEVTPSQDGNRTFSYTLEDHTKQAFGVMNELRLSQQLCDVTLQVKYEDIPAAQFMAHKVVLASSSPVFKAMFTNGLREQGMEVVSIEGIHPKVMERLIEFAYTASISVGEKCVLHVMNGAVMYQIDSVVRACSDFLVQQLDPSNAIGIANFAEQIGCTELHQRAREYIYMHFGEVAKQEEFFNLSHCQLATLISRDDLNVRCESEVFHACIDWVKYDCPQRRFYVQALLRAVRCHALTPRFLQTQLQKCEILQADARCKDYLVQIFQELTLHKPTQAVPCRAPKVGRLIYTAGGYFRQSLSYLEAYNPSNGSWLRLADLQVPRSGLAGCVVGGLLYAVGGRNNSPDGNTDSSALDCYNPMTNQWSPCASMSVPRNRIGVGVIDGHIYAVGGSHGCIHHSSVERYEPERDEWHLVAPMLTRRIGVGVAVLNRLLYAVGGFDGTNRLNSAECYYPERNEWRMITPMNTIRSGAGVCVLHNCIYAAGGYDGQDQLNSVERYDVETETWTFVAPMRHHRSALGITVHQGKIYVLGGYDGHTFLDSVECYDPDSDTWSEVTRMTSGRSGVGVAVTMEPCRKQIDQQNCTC

Variant | effect of a mutation on the interaction
MMDLELPPPGLQSQQDMDLIDILRRQDIDLGVSREVFDFSQRQKDYELEKQKKLEKERQEQLQKEQEKAFFAQFQLDEETGEFLPIQPAQHIQTDTSGSASYSQVAHIPKQDALYFEDCMQLLAETFPFVDDHESLALDIPSHAESSVFTAPHQAQSLNSSLEAAMTDLSSIEQDMEQVWQELFSIPELQCLNTENKQLADTTAVPSPEATLTEMDSNYHFYSSISSLEKEVGNCGPHFLHGFEDSFSSILSTDDASQLTSLDSNPTLNTDFGDEFYSAFIAEPSDGGSMPSSAAISQSLSELLDGTIEGCDLSLCKAFNPKHAEGTMEFNDSDSGISLNTSPSRASPEHSVESSIYGDPPPGFSDSEMEELDSAPGSVKQNGPKAQPAHSPGDTVQPLSPAQGHSAPMRESQCENTTKKEVPVSPGHQKAPFTKDKHSSRLEAHLTRDELRAKALHIPFPVEKIINLPVDDFNEMMSKEQFNEAQLALIRDIRRRGKNKVAAQNCRKRKLENIVELEQDLGHLKDEREKLLREKGENDRNLHLLKRRLSTLYLEVFSMLRDEDGKPYSPSEYSLQQTRDGNVFLVPKSKKPDTKKN [W24R] | disrupting interaction

Variants of: B1
Conditions: with keap1_mouse Keap1, Q9Z2X8
Remark: another data set of the same source

Variant | effect of a mutation on the interaction
MMDLELPPPGLQSQQDMDLIDILCRQDIDLGVSREVFDFSQRQKDYELEKQKKLEKERQEQLQKEQEKAFFAQFQLDEETGEFLPIQPAQHIQTDTSGSASYSQVAHIPKQDALYFEDCMQLLAETFPFVDDHESLALDIPSHAESSVFTAPHQAQSLNSSLEAAMTDLSSIEQDMEQVWQELFSIPELQCLNTENKQLADTTAVPSPEATLTEMDSNYHFYSSISSLEKEVGNCGPHFLHGFEDSFSSILSTDDASQLTSLDSNPTLNTDFGDEFYSAFIAEPSDGGSMPSSAAISQSLSELLDGTIEGCDLSLCKAFNPKHAEGTMEFNDSDSGISLNTSPSRASPEHSVESSIYGDPPPGFSDSEMEELDSAPGSVKQNGPKAQPAHSPGDTVQPLSPAQGHSAPMRESQCENTTKKEVPVSPGHQKAPFTKDKHSSRLEAHLTRDELRAKALHIPFPVEKIINLPVDDFNEMMSKEQFNEAQLALIRDIRRRGKNKVAAQNCRKRKLENIVELEQDLGHLKDEREKLLREKGENDRNLHLLKRRLSTLYLEVFSMLRDEDGKPYSPSEYSLQQTRDGNVFLVPKSKKPDTKKN [W24C] | disrupting interaction

Variants of: B1
Conditions: with keap1_mouse Keap1, Q9Z2X8
Remark: another data set of the same source

Variant | effect of a mutation on the interaction
MMDLELPPPGLQSQQDMDLIDILWREDIDLGVSREVFDFSQRQKDYELEKQKKLEKERQEQLQKEQEKAFFAQFQLDEETGEFLPIQPAQHIQTDTSGSASYSQVAHIPKQDALYFEDCMQLLAETFPFVDDHESLALDIPSHAESSVFTAPHQAQSLNSSLEAAMTDLSSIEQDMEQVWQELFSIPELQCLNTENKQLADTTAVPSPEATLTEMDSNYHFYSSISSLEKEVGNCGPHFLHGFEDSFSSILSTDDASQLTSLDSNPTLNTDFGDEFYSAFIAEPSDGGSMPSSAAISQSLSELLDGTIEGCDLSLCKAFNPKHAEGTMEFNDSDSGISLNTSPSRASPEHSVESSIYGDPPPGFSDSEMEELDSAPGSVKQNGPKAQPAHSPGDTVQPLSPAQGHSAPMRESQCENTTKKEVPVSPGHQKAPFTKDKHSSRLEAHLTRDELRAKALHIPFPVEKIINLPVDDFNEMMSKEQFNEAQLALIRDIRRRGKNKVAAQNCRKRKLENIVELEQDLGHLKDEREKLLREKGENDRNLHLLKRRLSTLYLEVFSMLRDEDGKPYSPSEYSLQQTRDGNVFLVPKSKKPDTKKN [Q26E] | disrupting interaction

Variants of: B1
Conditions: with keap1_mouse Keap1, Q9Z2X8
Remark: another data set of the same source

Variant | effect of a mutation on the interaction
MMDLELPPPGLQSQQDMDLIDILWRQDIDLGGSREVFDFSQRQKDYELEKQKKLEKERQEQLQKEQEKAFFAQFQLDEETGEFLPIQPAQHIQTDTSGSASYSQVAHIPKQDALYFEDCMQLLAETFPFVDDHESLALDIPSHAESSVFTAPHQAQSLNSSLEAAMTDLSSIEQDMEQVWQELFSIPELQCLNTENKQLADTTAVPSPEATLTEMDSNYHFYSSISSLEKEVGNCGPHFLHGFEDSFSSILSTDDASQLTSLDSNPTLNTDFGDEFYSAFIAEPSDGGSMPSSAAISQSLSELLDGTIEGCDLSLCKAFNPKHAEGTMEFNDSDSGISLNTSPSRASPEHSVESSIYGDPPPGFSDSEMEELDSAPGSVKQNGPKAQPAHSPGDTVQPLSPAQGHSAPMRESQCENTTKKEVPVSPGHQKAPFTKDKHSSRLEAHLTRDELRAKALHIPFPVEKIINLPVDDFNEMMSKEQFNEAQLALIRDIRRRGKNKVAAQNCRKRKLENIVELEQDLGHLKDEREKLLREKGENDRNLHLLKRRLSTLYLEVFSMLRDEDGKPYSPSEYSLQQTRDGNVFLVPKSKKPDTKKN [V32G] | disrupting interaction

Variants of: B1
Conditions: with keap1_mouse Keap1, Q9Z2X8
Remark: another data set of the same source

Variant | effect of a mutation on the interaction
MMDLELPPPGLQSQQDMDLIDILWRQYIDLGVSREVFDFSQRQKDYELEKQKKLEKERQEQLQKEQEKAFFAQFQLDEETGEFLPIQPAQHIQTDTSGSASYSQVAHIPKQDALYFEDCMQLLAETFPFVDDHESLALDIPSHAESSVFTAPHQAQSLNSSLEAAMTDLSSIEQDMEQVWQELFSIPELQCLNTENKQLADTTAVPSPEATLTEMDSNYHFYSSISSLEKEVGNCGPHFLHGFEDSFSSILSTDDASQLTSLDSNPTLNTDFGDEFYSAFIAEPSDGGSMPSSAAISQSLSELLDGTIEGCDLSLCKAFNPKHAEGTMEFNDSDSGISLNTSPSRASPEHSVESSIYGDPPPGFSDSEMEELDSAPGSVKQNGPKAQPAHSPGDTVQPLSPAQGHSAPMRESQCENTTKKEVPVSPGHQKAPFTKDKHSSRLEAHLTRDELRAKALHIPFPVEKIINLPVDDFNEMMSKEQFNEAQLALIRDIRRRGKNKVAAQNCRKRKLENIVELEQDLGHLKDEREKLLREKGENDRNLHLLKRRLSTLYLEVFSMLRDEDGKPYSPSEYSLQQTRDGNVFLVPKSKKPDTKKN [D27Y] | disrupting interaction
